# Measured values taken from the PETadex activity labels (doi:10.1093/ismejo/wraf068).
# B1: unnamed (protein)
# chain: APAGPYNVGYVIYDFPFVSPDGALQSLTTAVWYPTDAEPTPYTYGDGRATGLVSLDGPVSPAGRPFPLVVFSHGYGGGGTANLFLTKHLASWGFVVASPDYPDPDQMVRIRGGGTNTPILQYLRNALRLARTGLDFPFDDYAFRPAGLRTVIDQMLAQNADDTSALHGAIDPDRIAVAGHSLGTFTALSVAGLDPQWTDPRIRAVLALSGGVFMWPTQDFAQVSVPIMFMYGEREAGQRERIGLADVAALTRAAYDVCQPPKFMLEVKGGTHFTFGQRVYEERRAGGDASLPERQVAVINSYAAAFLRLYLRNDTSAAATLQQTDPMLTLYRHDM
# B2: unnamed (protein)
# chain: QVYEIGHTTITFNDPSRSRDIETEIYYPADVAGENVAVSTGTFPVCVFGHGFTMSVDAYENFSDVLVPQGYIILLPSTEDGFSPNHDEFGLDLAFLVDEFQLENTNGTSLFYGAIAPETALMGHSMGGGCSFLAAESNSSVTTLVNFAAAETNTSAIAAAANITIPAVVFSGEVDPVAPPADHQIPMYNALASECKTYISINDGGHCYFANYNFYCTMGEEAMMPGGPPLTREEQQQTTLDFLSIWLDYTLKGNANALTVFNDSLASSPRITYQQDCNLTILDQINPNAEFKVYPNPADQFFILESSREIKHVLIYNSMGSICLERNKRHRIDISELPEGMYVIKAITESGSFTKKIMVLH
# B3: unnamed (protein)
# chain: QSYQIGHTSIIYYDANRSNREIPTEIYYPAENEGDNVPVADPYSDGFPVISFGHGRMTTWSAYENIWSVLVQEGYIVAFACTEMSFIPNHTEFGLDIAFLVNRIQAEGIDSTSLFHGKIGTTSAVMGHSMGGATCFLSAQGNETITAITSFVSGNTSPSPIDAAVDITIPALLFSGSDDYMTPAEEYQIPIYEALNSDCKTLISITGGNHCQFAEYDYYCDTMEDNYPEPALTREEQHEVTNRFFISWVNFNLKGDFGAWYEFEDSLMTSEAITYMHDCDVTSVLEEPSETNIFMEYGLSNHPNPFNLTTTIKYELPKSAHISLKIYNISSKLIKTLVDEKENTGYNSVIWDGKDENGNPVPSGIYLYNIEIDGRVFSETKRMILLK
# B4: unnamed (protein)
# chain: MSRAFSFASVAALLVFFAASIWLARLDKGGPPHTELMLEGEVPATLYLPGDGEHREAFLDAPPRDERPPAVVMMHGFSGDRLSMSGISRRLAESGYAVLNIDARGHGQNRNPFSSSWAAPDLFYPDLLAAVEFLRAYPFVDGSRIAVMGHSMGAGASLDYASRDSAIGAAVLVSGGWRIQGPHRPPNTLFLYATGDPERIRGRSRQLAAGLAGVNDPEVGRTYGDPTRGDAVRLAEVAGADHQTIVWREAAVRETVAWLDATFGVARSPGPVPDDPRAPLLPLIWAAFLLVMVGLGQVVGRLVPAQPYRPGGGRIAGLAAIAAAFALTMPLLALGTPGFILSMEVGDVFVSHFALAGIVLLVAIRMREPELIDSLFAPRLLPTLIGAAVGTIGVFTLMRVFEPVMHRLTLTPERFLVFVMAALGLLPLALAFNLLLRRGTTAGATLTSLAGRVLVLLVLFAGVQVGILSMVMLFMLPALGFVCLQFEVLAAAIYASSRNLLALSLIDAAWLAMVIAAIMPIRI
# B5: unnamed (protein)
# chain: WGAQNHFYETVLVDTDENPRETHLVGQIDGVFTDENYGEYEVTIYYPAINSGVSQPPDKSGAPYPAIIFAHGWLTSKELYTWIGNYCAAQGYVTLLFSVPDPTSLEAFRQSVTGITKSIDYLLVQNQGGLLSGLINTSRIGVMGHSMGAMAVLIATTEDSRIKAAVSLAPGYFGSTTKKYVEACKSIRVPIQFQAGSLDKICPPSAVETYYNAVRIPPKEIIVINGADHIQFSDAPATLWANITLEEQHETSRKYFIAWFNYYLRDDFNYYAYLFGSEARKDMENGILSSLEYVERFDC
# B6: unnamed (protein)
# chain: CGKDGGIMTQDVEFTSDDGVLLKGTLYLPAGISEKLPGVTLAHMNMNDRTSWAYYAEKLALEGYVVLAFDLRGWGESGGESDFHEMYRDVMAAVTYLANFGKVDRNRIASAGASMGGMASVIAASRTSSIKAVATVSSPPAWSESEPVKVIGKLPPRPVLVIAGSSDPHLDLRAARMLFLAAKEPRQWLEIKTNKHGTDIFATPQGVELERALAMFFAENLKDSGRSSTTEKDGK
# B7: unnamed (protein)
# chain: CGSDDDSAPGSPAGNEPFYAPDELGPFAVGRSTFTIVDADRGDRELPVDVWYPVDPEEATGAPSLYQVSILVWIFPLVFTTPSEVALDSPPVSEARRFPLIVFSHGSGGLRYQSFFLTEILASHGFVVVAPSHVGNTLLDEINGTFAPLTDMMVARPLDVSYLITRMLEKNEDAADPLYGTIDADRIGVCGHSFGGFTSLAMAAGFGADPPPDLDPEIPEDLEPVPPDPRVDAIVPIAPASSWFGDSELAGIDVPTLIIGGTLDTTTPIATENVRPYEMIPAPVFRADLDGAVHFSFSNSCDLIQGMREKGIPQALIDALLGAEFTAPCNPPSLDVEEAHRITNLYTVSLFETFLEDDSRYEKYLTEAYAEASEPNVTFYANPD
# B8: unnamed (protein)
# chain: MTKVNFQNKEEKRIVGILSIPKGKGPYPAVIFCHGLGSSKESPLIKTVSKKVRQVGFATFTFDCLGSRESDPYHSTAGITKRLSDLDAAIDFLAKHPRVDAERMGLYGHSLGGSVALVQASRDKRIKTAVLISPVIDFRRTGLRPINKKHMDEWDKREEILTINRKNKIVFRIPWDFFVDITSYDFVDIARKVACPVMIIHGTQDSLVPIQQSQILCQNLKNSELISLPWQKHFTRTTRKRKEAIVNSIFWFNKYLKKSATPSN
# B9: unnamed (protein)
# chain: QSYEMGHRSEIYIDPSRGDRAIPTEIYYPSLTAGDDVPVADPPTGGFPVVAFAHGRMMPWDDYENIWGALAPQGFVVACPTTETGFMPNRTNFSLDLIYVISRIRLENSSATSPFYGKIGNASAVIGHSFGGVATFMAAIESDSITAIVTFASGQIDSVELAGISEPALIFAGTDDSLTPAATFQIPYYNNLGSSCKTLVNIIGGTHCHFAESSYYCDIGEAGFPPPGITRERQHELTNQFLIPWLDFMLNTDPVASDSFQTLLTTSGDILYLQDCDIMGVSRDDPTDLPGIIDLLAYPNPFNSAVRIGVERGEWRVENREIFDITGRMVAEIPAQSVIPDPDRESRGVVEGLDSRFHG
# B10: unnamed (protein)
# chain: CTDNADTDGADGAEGSATEEGGTEESGKESGEESKADLAALAAEVEEPGPWAVGTTTVETTGARDRQLPVQVWYPVDTAVAATAEPATYDFPGIEVPAGAVTGASPAPGPFPLVIYSHGNGGLRYVSSFLAEHMASHGFVVMAPDHVGNTALDTFLGSRDETDQVAEDRPVDVQAVIDAATSGQAGLEEVSPVVDGEEVAVIGHSFGGYTALALASRQAEGDDSLDAIVGLAPASSGVDDTTLEAVGVPTLLISGTLDETTPIEEDTLRPAELVSGRPLVRADIDGAGHQSFTDVCDYLGIAESQPDLPAALVEAPQEYALEGCAPELIVIDEAQRITNRLVTAFLLETLYADDSWSPLLSPGAEEGQPLALLERED
# B11: unnamed (protein)
# chain: CGGGRVTPPDSPGEQMQAELAETLPEGGGREGRESDVAEVDREGESLDQGMDAEQTLPDAIGLTEEVGESGALYEAEGEAETIDGCDLADQGGEIEAWETLPPADVQQDEQLAAGTGDPFEWGPYEIGKKDYDFYDIQRMRLVPTTVWYPALPSGQSKAKYLLVVQGKAYVEPPAEPSGAPYPLVLFSHGYGGTRFQSVSYTEYLASHGYVVAAMDHIGNTFLDFFSDDAKVAQIALERPKDVRFVYQELVKLSNSGDGVMGGMVDQDRVAVTGHSFGGYTALVVAGAEIDVSEAIAACQSGAVSDIFCAYVEYWPAGEVIKLDPPIPGVQAAIYLAPGGYSAFGDQGLAAVKVPSMIFGGTLDDTCSVAVEIEPIYQALPPPKIEVLIQNGGHMSFTNLCDLPFAQFYLDKYCDVEGMIPAQQAFAVTNGLSVAFLDLYLKGVDAAAQYLTQEAVDEEFGYVELKAE
# B12: unnamed (protein)
# chain: SRTRQILTEIYYPADTAGEEVPVAEPGAEGFPAVSFAHGRRMAWSAYSNFWEMLAPQGYIIVFPCTEMGLSPNHLDFALDCLFDAHKLQELNDLGTSIFYQKVGDTFAVTGHSMGGVVSFIAAIEDPTVTAIANFACGQASSYDLASVTAPALIFAGSDDYMTPVDQYQLLFYNELSSTCKALLILQGANHCQYAQYTSVCDDIEDQYPDPALTRTQQHAVTSTLLIPWLDYMLKGDEEAWTEFNVLAGDGDVTETHMICDLPFNTPTPASPPTPFVPATSSGGIGTLIVVISGTLALLSSRRK
# Assays:
# [1] = substrate: BHET; experiment: Proxy for plastic degradation [HPLC-UV] (mmol); conditions: pH 8
# [2] = substrate: PET; experiment: Proxy for plastic degradation [HPLC-UV] (mmol)
Protein,Proxy for plastic degradation [1],"Proxy for plastic degradation ([2]; pH 8, 30 °C)","Proxy for plastic degradation ([2]; pH 8, 60 °C)",other results
B1,0,0,0,–
B2,0,0,0,–
B3,–,0,0,–
B4,0,0,0,–
B5,0,0,–,"Proxy for plastic degradation ([2]; pH 6): 0.11; Proxy for plastic degradation ([2]; pH 6.5): 0.96; Proxy for plastic degradation ([2]; pH 7): 0.47; Proxy for plastic degradation ([2]; pH 7.5): 0.4; Proxy for plastic degradation ([2]; pH 8, 40 °C): 0.39; Proxy for plastic degradation ([2]; pH 8, 50 °C): 2.78; Proxy for plastic degradation ([2]; pH 8, 70 °C): 0.05; Proxy for plastic degradation ([2]; pH 8, 80 °C): 0.04"
B6,0,0,0,–
B7,0,0,0,–
B8,0.1,0,0,–
B9,0,0,0,–
B10,0,0,0,–
B11,0.05,0,0,–
B12,0,0,0,–
